Measurements taken from patent publication US20130052733A1.

Target: mAb LGIII 147.4.1
Test: direct ELISA, capture by mAb LG III 147.4.1, detection with FL119

For “HLA-A*1101/LMP2340-349-fused β2m (from UniProt P61769 21-119) (peptide-MHC)”, which concentration at which absorbance is saturated is on record?
The concentration at which absorbance is saturated was 4 nCM.
